Data on one molecule can be found in article PMC3521718, “Histone Deacetylase HDA6 Is Functionally Associated with AS1 in Repression of KNOX Genes in Arabidopsis” (PLoS Genetics, 2012).

For this assay, the target named is T1, glutathione S-transferase (GST)-HDA6 recombinant protein (Arabidopsis thaliana, UniProt Q9FML2 1-471).
T1 construct: Histone deacetylase HDA6 of Arabidopsis; Printed both as GST-HDA6 and as HDA6-GST; also called HDA6-GST; source: recombinant protein
T1 sequence (looked up): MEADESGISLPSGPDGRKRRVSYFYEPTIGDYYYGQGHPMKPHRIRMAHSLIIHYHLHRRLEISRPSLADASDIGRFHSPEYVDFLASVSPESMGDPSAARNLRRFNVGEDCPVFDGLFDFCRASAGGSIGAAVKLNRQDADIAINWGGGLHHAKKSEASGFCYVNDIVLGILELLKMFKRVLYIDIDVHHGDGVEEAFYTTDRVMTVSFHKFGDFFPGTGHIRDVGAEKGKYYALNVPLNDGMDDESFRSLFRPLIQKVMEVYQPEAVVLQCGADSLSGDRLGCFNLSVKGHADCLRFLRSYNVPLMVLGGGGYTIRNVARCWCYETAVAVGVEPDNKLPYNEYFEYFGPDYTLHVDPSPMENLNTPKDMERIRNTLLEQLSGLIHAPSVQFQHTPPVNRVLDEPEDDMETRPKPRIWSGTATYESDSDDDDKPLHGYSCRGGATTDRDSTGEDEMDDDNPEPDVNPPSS
The assay can be described thus: pull-down; 2 µg MBP-AS1 on MBP resin, then 2 µg GST-HDA6 for 2 h at 4°C; 20 mM Tris-HCl pH 7.5, 200 mM NaCl, 1 mM EDTA; western blot with anti-GST. As to conditions: both partners purified.

B1: MBP-AS1 recombinant protein (natural protein, Arabidopsis thaliana, UniProt O80931 1-367, looked up)
chain: MKERQRWSGEEDALLRAYVRQFGPREWHLVSERMNKPLNRDAKSCLERWKNYLKPGIKKGSLTEEEQRLVIRLQEKHGNKWKKIAAEVPGRTAKRLGKWWEVFKEKQQREEKESNKRVEPIDESKYDRILESFAEKLVKERSNVVPAAAAAATVVMANSNGGFLHSEQQVQPPNPVIPPWLATSNNGNNVVARPPSVTLTLSPSTVAAAAPQPPIPWLQQQQPERAENGPGGLVLGSMMPSCSGSSESVFLSELVECCRELEEGHRAWADHKKEAAWRLRRLELQLESEKTCRQREKMEEIEAKMKALREEQKNAMEKIEGEYREQLVGLRRDAEAKDQKLADQWTSRHIRLTKFLEQQMGCRLDRP
notes: The methods spell MBP out as 'Myelin basic protein'; source: purified recombinant protein
In the case of B1, the binding result was “binds”.
